Source: patent US20260070940A1 (Hoffmann-La Roche, published 2026)
Substitutions are numbered along the chain they refer to.

T1: full-length human CEA with N-terminal SNAP tag on transfected HEK293 cells (human, UniProt P06731 35-685, SNAP tag labelled with terbium)
T1 construct: whole, on cells; also called hu CEA-SNAP; CEACAM5
T1 sequence (looked up): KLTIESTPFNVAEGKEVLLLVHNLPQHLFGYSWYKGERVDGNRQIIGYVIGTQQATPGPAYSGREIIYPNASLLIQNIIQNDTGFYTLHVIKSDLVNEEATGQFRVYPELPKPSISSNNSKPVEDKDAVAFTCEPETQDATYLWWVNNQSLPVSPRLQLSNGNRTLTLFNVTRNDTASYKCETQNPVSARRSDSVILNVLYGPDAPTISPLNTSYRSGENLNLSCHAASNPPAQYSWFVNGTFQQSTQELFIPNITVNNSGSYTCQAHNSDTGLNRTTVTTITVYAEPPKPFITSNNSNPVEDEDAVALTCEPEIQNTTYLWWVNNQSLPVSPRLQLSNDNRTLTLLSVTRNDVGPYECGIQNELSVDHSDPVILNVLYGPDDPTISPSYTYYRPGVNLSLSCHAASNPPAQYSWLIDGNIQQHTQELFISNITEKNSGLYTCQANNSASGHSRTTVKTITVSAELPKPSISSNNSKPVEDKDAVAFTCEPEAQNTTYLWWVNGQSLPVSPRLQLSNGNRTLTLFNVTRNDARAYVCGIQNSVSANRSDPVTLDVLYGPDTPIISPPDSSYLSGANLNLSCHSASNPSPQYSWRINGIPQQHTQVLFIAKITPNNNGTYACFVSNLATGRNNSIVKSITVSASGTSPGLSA

B1: anti-CD28 aVH P020.077 (VHH)
VHH: EVQLVESGGGLVQPGGSLRLSCAASGFNIKDTCIGWVRRAPGKEEELVAGICQHYGDTRYADSVKGRFTISADTSKNTAYLQMNSLRAEDTAVYYCATDDWIYPGYIYWGQGTTVTVSS
B2: anti-CD28 aVH P019.020 (VHH)
VHH: EVQLVESGGGLVQPGGSLRLSCAASGFNIKDSSTYIGWVRRAPGKEEELVAYIYCTQGETRYADSVKGRFTISCDTSKNTAYLQMNSLRAEDTAVYYCASWGGNYPYYYWGQGTTVTVSS
B3: anti-CD28 aVH P020.035 (VHH)
VHH: EVQLVESGGGLVQPGGSLRLSCAASGFNIKDTCIGWVRRAPGKEEELVADICGDDGHTRYADSVKGRFTISADTSKNTAYLQMNSLRAEDTAVYYCAYYSGSYYEYWGQGTTVTVSS
B4: anti-CD28 aVH P023.017 (VHH)
VHH: EVQLVESGGGLVQPGGSLRLSCAASGFNIKDTCIGWVRRAPGKEEELVARICGEYGSTRYADSVKGRFTISADTSKNTAYLQMNSLRAEDTAVYYCAAQPRYYDVYDYWGQGTTVTVSS
B5: anti-CD28 aVH P023.057 (VHH)
VHH: B4 VHH with R50E, E54R, Q99E, P100H, Y103P, D104G, V105Q, D107T
B6: anti-CD28 aVH P023.001 (VHH)
VHH: EVQLVESGGGLVQPGGSLRLSCAASGFNIKDTCIGWVRRAPGKEEELVAYICPSHGYTRYADSVKGRFTISADTSKNTAYLQMNSLRAEDTAVYYCADHKNTQWGYAYWGQGTTVTVSS
B7: anti-CD28 aVH P023.039 (VHH)
VHH: EVQLVESGGGLVQPGGSLRLSCAASGFNIKDTCIGWVRRAPGKEEELVADICIKHGYTRYADSVKGRFTISADTSKNTAYLQMNSLRAEDTAVYYCADWTQSGYHYGYWGQGTTVTVSS
B8: anti-CD28 aVH P020.057 (VHH)
VHH: EVQLVESGGGLVQPGGSLRLSCAASGFNIKDTCIGWVRRAPGKEEELVAAICYTQGDTRYADSVKGRFTISADTSKNTAYLQMNSLRAEDTAVYYCAASQYDSYYTYWGQGTTVTVSS
B9: anti-CD28 aVH P020.065 (VHH)
VHH: B8 VHH with A50G, Q55Y, A98S, Q100E, Y101V, T106S
B10: anti-CD28 aVH P020.042 (VHH)
VHH: B8 VHH with Y53R, T54E, Q55A, S99A, Q100D, Y104T, T106I
B11: anti-CD28 aVH P020.051 (VHH)
VHH: B8 VHH with Y53K, S99A, Q100N, Y104P
B12: anti-CD28 aVH P020.017 (VHH)
VHH: B8 VHH with Y53P, T54D, Q55E, S99A, Q100K, S103D, Y104R, T106N
B13: anti-CD28 aVH P020.023 (VHH)
VHH: B8 VHH with V37A, Y53D, T54Y, Q55N, D57H, A98Q, Q100D, Y104K, T106S
B14: anti-CD28 aVH P020.034 (VHH)
VHH: B8 VHH with Y53H, T54H, Q55G, A98E, Y101V, T106S
B15: anti-CD28 aVH P020.063 (VHH)
VHH: B8 VHH with Y53P, T54E, Q55Y, A98S, Q100D, Y104A, T106S
B16: anti-CD28 aVH P020.037 (VHH)
VHH: B8 VHH with Y53D, T54S, Q55G, Q100D, D102N, Y104H, T106S
B17: anti-CD28 aVH P020.027 (VHH)
VHH: B8 VHH with A50G, Y53R, T54D, Q55G, Q100D, T106A
B18: anti-CD28 aVH P020.029 (VHH)
VHH: B8 VHH with A50G, Y53E, T54A, Q55G, A98E, Y101Q, D102G, T106S
B19: anti-CD28 aVH P020.010 (VHH)
VHH: EVQLVESGGGLVQPGGSLRLSCAASGFNIKDTCIGWVRRAPGKEEELVAYICEGNGYTRYADSVKGRFTISADTSKNTAYLQMNSLRAEDTAVYYCAAEGKETYYYQYWGQGTTVTVSS
B20: anti-FAP aVH P012.090 (VHH)
VHH: EVQLVESGGGLVQPGGSLRLSCAASSFNIKDTYIGWVRRAPGKEEELVAKIFRCSDGRTRYADSVKGRFTISCDTSKNTAYLQMNSLRAEDTAVYYCANIYKTHYTYWGQGTTVTVSS
B21: anti-FAP aVH P032.056 (VHH)
VHH: EVQLVESGGGLVQPGGSLRLSCAASSFNIKDTYIGWVRRAPGKEEELVANIHCRSGYTRYADSVKGRFTISCDTSKNTAYLQMNSLRAEDTAVYYCAHSGSRYIYKYWGQGTTVTVSS
B22: anti-FAP aVH P014.087 (VHH)
VHH: EVQLVESGGGLVQPGGSLRLSCAASGFNIKDTCIGWVRRAPGKEEELVANICGHIGSTRYADSVKGRFTISADTSKNTAYLQMNSLRAEDTAVYYCANSYTYSYKYWGQGTTVTVSS
B23: anti-FAP aVH P034.066 (VHH)
VHH: EVQLVESGGGLVQPGGSLRLSCAASGFNIKDTCIGWVRRAPGKEEELVANICGITGYTRYADSVKGRFTISADTSKNTAYLQMNSLRAEDTAVYYCAKSGGPKGYTYWGQGTTVTVSS
B24: anti-FAP aVH P031.033 (VHH)
VHH: B23 VHH with I54Q, T55Y, Y57Q, P102R, K103H, T106E
B25: anti-FAP aVH P011.064 (VHH)
VHH: EVQLVESGGGLVQPGGSLRLSCAASGFNIKDTCIGWVRRAPGKEEELVANICITDGKTRYADSVKGRFTISADTSKNTAYLQMNSLRAEDTAVYYCAYYSKYIGYRYWGQGTTVTVSS
B26: anti-FAP aVH P011.080 (VHH)
VHH: B25 VHH with I53Q, T54S, D55G, K57Y, Y98R, S100H, Y102G, I103V, R106Q
B27: anti-CEA aVH P118.061 (VHH)
VHH: EVQLVESGGGLVQPGGSLRLSCAASGFNIKDTCIGWVRRAPGKEEELVANICPYHGYTRYADSVKGRFTISADTSKNTAYLQMNSLRAEDTAVYYCAIVSYVDEYYNYWGQGTTVTVSS
B28: anti-CEA aVH P127.014 (VHH)
VHH: B27 VHH with N50A, P53T, H55K, Y57T, V99Y, Y101H, V102Y, D103Y, E104D
B29: anti-CEA aVH P127.002 (VHH)
VHH: B27 VHH with N50S, P53K, H55T, Y57K, S100A, Y101S, V102G, E104G, Y105W
B30: anti-CEA aVH P124.021 (VHH)
VHH: B27 VHH with N50A, H55K, I98N, S100A, V102S, D103G, E104G, Y105H
B31: anti-CEA aVH P124.034 (VHH)
VHH: B27 VHH with N50A, H55I, Y57E, I98T, S100A, Y101R, V102K, D103Y, E104N, Y105Q

What follows are binders tested against T2, hu CD28-Fc (Fc-knob-avi and Fc-hole chains), biotinylated (human, biotin on the avi tag) (assay: SPR, bacterial supernatant).
T2 construct: also called CD28-Fc-avi

koff	Binder
0.0117 s⁻¹	B1
0.0206 s⁻¹	B2
0.00134 s⁻¹	B3
0.0175 s⁻¹	B4
0.0777 s⁻¹	B5
0.0321 s⁻¹	B6
0.0176 s⁻¹	B7
0.0174 s⁻¹	B8
0.00885 s⁻¹	B9
0.0144 s⁻¹	B10
0.0135 s⁻¹	B11
0.0109 s⁻¹	B12
0.0033 s⁻¹	B13
0.00216 s⁻¹	B14
0.018 s⁻¹	B15
0.0131 s⁻¹	B16
0.00145 s⁻¹	B17
0.00151 s⁻¹	B18
0.00068 s⁻¹	B19

The binders below were run against T3, murine FAP avi his, biotinylated (murine, UniProt P97321 27-761, biotin on the avi-tag) (assay: SPR, bacterial supernatant;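 further: SPR at 25 °C with biotinylated human or murine FAP captured via neutravidin, aVH-containing bacterial supernatants diluted 1:3 as analyte, 600 s dissociation, blank supernatant without aVH as reference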).
T3 construct: also called muFAP; mu FAP

binding result	koff	Binder
no binding	–	B20
–	0.0222 s⁻¹	B21
no binding	–	B22
–	0.00253 s⁻¹	B23
–	0.0106 s⁻¹	B24
no binding	–	B25
no binding	–	B26

The binders below were run against T4, human FAP avi his, biotinylated (human, UniProt Q12884 27-759, biotin on the avi-tag) (assay: SPR, bacterial supernatant;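 further: SPR at 25 °C with biotinylated human or murine FAP captured via neutravidin, aVH-containing bacterial supernatants diluted 1:3 as analyte, 600 s dissociation, blank supernatant without aVH as reference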).
T4 construct: also called huFAP

binding result	koff	Binder
no binding	–	B21
–	0.000215 s⁻¹	B23
no binding	–	B24

The binders below were run against T1, full-length human CEA with N-terminal … (assay: FRET (TagLite) on hu CEA-SNAP cells).

Kd	Binder
14.7 nM	B27
9.1 nM	B28
399 nM	B29
12.3 nM	B30
65.4 nM	B31
